Source: patent US20140322253A1 (FRED HUTCHINSON CANCER RESEARCH CENTER, published 2014)

Each binder was assayed against T1, HLA A*0201 on T2 cells (human) (assay: HLA stabilization assay on T2 cells, flow cytometry with anti-HLA A,B,C (W6/32)).
T1 construct: MHC class I on the surface of T2 cells; surface level read with FITC-labeled anti-HLA A,B,C (W6/32)
Protocol: T2 cells were pulsed with 100 μg/ml peptide in serum-free RPMI containing 1 μg/ml β-2-microglobulin (Sigma) for 16 h. Cells were then washed and incubated for 4 h in the presence of 5 μg/ml brefeldin A (Sigma), and then stained with FITC-labeled anti-HLA A, B, C (clone W6/32, BD Bioscience).

binding result	Binder
binds	SLIAAAAFCL [10-mer SLIAAAAFCL (10-mer 1)]
binds	SLIAAAAFCLA (Synthetic peptide; also called the 11-mer) [CCNA1 341-351 peptide SLIAAAAFCLA]
binds	FLDRFLSCM (Synthetic peptide; also called the 9-mer) [CCNA1 227-235 peptide FLDRFLSCM]
